Measurements published in patent US20250145711A1 (Janssen / Centocor, published 2025).
Substitutions are numbered along the chain they refer to. Names may count otherwise.

B1: CD3B2030 (scFv)
scFv: QVQLVQSGAEVKKPGSSVKVSCKASGYTFTRSTMHWVKQAPGQGLEWIGYINPSSAYTNYNQKFQGRVTLTADKSTSTAYMELSSLRSEDTAVYYCASPQVHYDYNGFPYWGQGTLVTVSSGGSEGKSSGSGSESKSTGGSEIVLTQSPATLSASPGERVTLSCSASSSVSYMNWYQQKPGQAPRRWIYDSSKLASGVPARFSGSGSGRDYTLTISSLEPEDFAVYYCQQWSRNPPTFGGGTKVEIK
B2: CD3B2051 N106E (scFv)
scFv: B1 scFv with I48M, N106E, W187L
B3: CD3B2089 N106I (scFv)
scFv: B1 scFv with K38R, I48M, N61A, N106I
B4: CD3B2051 N106S (scFv)
scFv: B1 scFv with I48M, N106S, W187L
B5: CD3B2089 N106F (scFv)
scFv: B1 scFv with K38R, I48M, N61A, N106F
B6: CD3B2089 N106R (scFv)
scFv: B1 scFv with K38R, I48M, N61A, N106R
B7: CD3B2051 N106P (scFv)
scFv: B1 scFv with I48M, N106P, W187L
B8: CD3B2051 N106R (scFv)
scFv: B1 scFv with I48M, N106R, W187L
B9: CD3B2089 G107V (scFv)
scFv: B1 scFv with K38R, I48M, N61A, G107V
B10: CD3B2089 G107Y (scFv)
scFv: B1 scFv with K38R, I48M, N61A, G107Y
B11: CD3B2051 N106V (scFv)
scFv: B1 scFv with I48M, N106V, W187L
B12: CD3B2089 N106P (scFv)
scFv: B1 scFv with K38R, I48M, N61A, N106P
B13: CD3B2030 N106Q (scFv)
scFv: B1 scFv with N106Q
notes: also called CD3B2030 NtoQ
B14: CD3B2089 N106E (scFv)
scFv: B1 scFv with K38R, I48M, N61A, N106E
B15: CD3B2030 N106G (scFv)
scFv: B1 scFv with N106G
B16: CD3B2030 N106F (scFv)
scFv: B1 scFv with N106F
B17: CD3B2051 N106K (scFv)
scFv: B1 scFv with I48M, N106K, W187L
B18: CD3B2030 N106K (scFv)
scFv: B1 scFv with N106K
B19: CD3B2089 N106T (scFv)
scFv: B1 scFv with K38R, I48M, N61A, N106T
B20: CD3B2089 N106L (scFv)
scFv: B1 scFv with K38R, I48M, N61A, N106L
B21: CD3B2089 N106G (scFv)
scFv: B1 scFv with K38R, I48M, N61A, N106G
B22: CD3B2030 N106S (scFv)
scFv: B1 scFv with N106S
B23: CD3B2051 N106G (scFv)
scFv: B1 scFv with I48M, N106G, W187L
B24: CD3B2030 N106A (scFv)
scFv: B1 scFv with N106A
B25: CD3B2051 N106A (scFv)
scFv: B1 scFv with I48M, N106A, W187L
B26: CD3B2030 N106L (scFv)
scFv: B1 scFv with N106L
B27: CD3B2051 (scFv)
scFv: B1 scFv with I48M, W187L
B28: CD3B2030 N106H (scFv)
scFv: B1 scFv with N106H
B29: CD3B2051 N106H (scFv)
scFv: B1 scFv with I48M, N106H, W187L
B30: CD3B2030 N106R (scFv)
scFv: B1 scFv with N106R
B31: CD3B2089 N106S (scFv)
scFv: B1 scFv with K38R, I48M, N61A, N106S

Tests used:
[1] = target: T1, TRCW5 antigen (CD3δε-Fc-Avi) (biotinylated (site not stated)); assay: ELISA after heat
T1 construct: also called recombinant CD3
T1 sequence (chain, as listed by the source mutant limits assumed): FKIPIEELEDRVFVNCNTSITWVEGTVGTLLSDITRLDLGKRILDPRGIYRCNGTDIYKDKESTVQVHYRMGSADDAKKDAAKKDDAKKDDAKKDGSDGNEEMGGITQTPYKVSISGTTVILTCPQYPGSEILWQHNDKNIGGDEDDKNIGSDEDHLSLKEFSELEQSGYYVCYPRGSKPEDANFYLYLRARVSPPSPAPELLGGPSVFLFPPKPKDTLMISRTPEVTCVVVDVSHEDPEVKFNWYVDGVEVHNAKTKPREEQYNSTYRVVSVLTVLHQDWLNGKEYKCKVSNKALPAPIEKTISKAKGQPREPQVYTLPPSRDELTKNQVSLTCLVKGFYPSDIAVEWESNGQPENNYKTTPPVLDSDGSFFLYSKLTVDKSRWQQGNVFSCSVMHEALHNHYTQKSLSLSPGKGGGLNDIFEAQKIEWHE

[2] = target: T1, TRCW5 antigen (CD3δε-Fc-Avi); assay: ELISA
[3] = target: T1, TRCW5 antigen (CD3δε-Fc-Avi); assay: binding after heat
[4] = target: T2, CD3 on primary human pan T cells (human, UniProt P07766 23-207); assay: flow cytometry, pan T-cells
T2 construct: on cells it stands in the TCR/CD3 complex; also called Pan T-cells (CD3-positive); endogenous CD3
T2 sequence (P07766 23-207 limits assumed): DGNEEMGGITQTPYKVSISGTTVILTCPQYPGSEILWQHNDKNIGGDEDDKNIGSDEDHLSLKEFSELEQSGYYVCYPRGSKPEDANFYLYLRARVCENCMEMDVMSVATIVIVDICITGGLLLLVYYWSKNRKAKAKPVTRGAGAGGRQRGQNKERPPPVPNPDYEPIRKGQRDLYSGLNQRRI

Binder | % Retained 55° C. [1] | % Retained 60° C. [1] | % Retained 65° C. [1] | EC50 [2] | % Retained 55° C. [3] | % Retained 60° C. [3] | % Retained 65° C. [3] | % Binding retained on T-cells, 55° C. [4] | % Binding retained on T-cells, 60° C. [4] | % Binding retained on T-cells, 65° C. [4] | % Binding retained on T-cells, RT [4]
B1 | 106% | 101% | 36% | 8.84 nM | 104% | 102% | 41.3% | 1.05 fraction | 1.1 fraction | 0.757 fraction | 1 fraction
B2 |  |  |  | 8.05 nM | 78.4% | 15.4% | 0.5% |  |  |  | 
B3 |  |  |  | 17.9 nM | 40.6% | 2.5% | 0.9% |  |  |  | 
B4 |  |  |  | 11.1 nM | 101% | 70.9% | 1.5% |  |  |  | 
B5 |  |  |  | 10.1 nM | 113% | 101% | 36.2% |  |  |  | 
B6 |  |  |  | 11.2 nM | 102% | 103% | 60.4% |  |  |  | 
B7 |  |  |  | 10.9 nM | 87.7% | 32.6% | 0.2% |  |  |  | 
B8 |  |  |  | 11.2 nM | 101% | 74.5% | 8.4% |  |  |  | 
B9 |  |  |  | 17.4 nM |  |  |  |  |  |  | 
B10 |  |  |  | 21.4 nM |  |  |  |  |  |  | 
B11 |  |  |  | 15.2 nM | 54.9% | 1.4% | 0.7% |  |  |  | 
B12 |  |  |  | ~27.4 nM |  |  |  |  |  |  | 
B13 | 111% | 105% | 55% | 10 nM | 110% | 97.5% | 72.3% |  |  |  | 
B14 |  |  |  | 10.3 nM | 113% | 108% | 33.2% |  |  |  | 
B15 |  |  |  | 14.3 nM | 115% | 59.8% | 1.7% |  |  |  | 
B16 |  |  |  | 9.7 nM | 106% | 83.3% | 21.8% |  |  |  | 

Binder | % Retained 55° C. [1] | % Retained 60° C. [1] | % Retained 65° C. [1] | EC50 [2] | % Retained 55° C. [3] | % Retained 60° C. [3] | % Retained 65° C. [3] | % Binding retained on T-cells, 55° C. [4] | % Binding retained on T-cells, 60° C. [4] | % Binding retained on T-cells, 65° C. [4] | % Binding retained on T-cells, RT [4]
B17 |  |  |  | 11.4 nM | 116% | 91.3% | 4% |  |  |  | 
B18 |  |  |  | 11.7 nM | 99.7% | 87.2% | 7.3% |  |  |  | 
B19 |  |  |  | 11.1 nM | 108% | 76.7% | 1.4% |  |  |  | 
B20 |  |  |  | 30.8 nM |  |  |  |  |  |  | 
B21 |  |  |  | ~429 nM |  |  |  |  |  |  | 
B22 |  |  |  | 19.1 nM | 64.6% | 19% | 0.6% |  |  |  | 
B23 |  |  |  | 13.8 nM | 98.9% | 33.1% | 1.5% |  |  |  | 
B24 |  |  |  | 12.8 nM | 111% | 103% | 55.6% |  |  |  | 
B25 |  |  |  | 12.1 nM | 98.9% | 97% | 33.3% |  |  |  | 
B26 |  |  |  | 11.4 nM | 107% | 100% | 25.6% |  |  |  | 
B27 | 109% | 94% | 32% | 8.73 nM | 104% | 95% | 10.9% |  |  |  | 
B28 |  |  |  | 10.6 nM | 104% | 98.9% | 55.7% |  |  |  | 
B29 |  |  |  | 10.9 nM | 103% | 84.2% | 9% |  |  |  | 
B30 |  |  |  | 10.6 nM | 107% | 104% | 53.8% |  |  |  | 
B31 |  |  |  | 10 nM | 102% | 90.2% | 5.4% |  |  |  | 
